Laboratory results from article PMC11445502, “CDK phosphorylation of Sfr1 downregulates Rad51 function in late-meiotic homolog invasions” (The EMBO Journal, 2024).

How the values were obtained:
Rad51 [1] = molecular target: Rad51 (UniProt P36601); assay: focus co-localisation on nuclear spreads; settings: reference: EGFP-Sfr1 wild type; sites T73,T89,S109,S116,S147,T152,S165
Rad51 [2] = molecular target: Rad51 (UniProt P36601); assay: GST pulldown from mixed bacterial lysates; settings: reference: wild-type GST-Sfr1; sites T73,T89,S109,S116,S147,T152,S165
GST-Sfr1-7A = molecular target: T1, GST-Sfr1-7A (S. pombe, UniProt Q9USV1 1-299, Thr73 to Ala | Thr89 to Ala | Ser109 to Ala | Ser116 to Ala | Ser147 to Ala | …); assay: pull-down; GST-Sfr1 lysates (~2 mg) and Rad51 extract (75 ug) from E. coli mixed, Glutathione Sepharose 4B, 1 h at 4 °C; pulldown buffer 25 mM HEPES-KOH pH 7.5, 150 mM NaCl, 3.5 mM MgCl2, 0.5 mM DTT, 0.05 mg/ml BSA, 10% glycerol, 0.05% Igepal; western blot anti-GST and anti-Rad51; Rad51/GST ratio quantified; settings: partners not purified
T1 construct: Sfr1, S. pombe, all seven putative CDK sites changed to alanine; pGEX-4T-1 should put GST at the N-terminus (surmised); Partly degraded as m1; also called pGEX-4T-1 sfr1-7A (CMC102); source: E. coli BL21 DE3, in cleared lysate
T1 sequence (looked up): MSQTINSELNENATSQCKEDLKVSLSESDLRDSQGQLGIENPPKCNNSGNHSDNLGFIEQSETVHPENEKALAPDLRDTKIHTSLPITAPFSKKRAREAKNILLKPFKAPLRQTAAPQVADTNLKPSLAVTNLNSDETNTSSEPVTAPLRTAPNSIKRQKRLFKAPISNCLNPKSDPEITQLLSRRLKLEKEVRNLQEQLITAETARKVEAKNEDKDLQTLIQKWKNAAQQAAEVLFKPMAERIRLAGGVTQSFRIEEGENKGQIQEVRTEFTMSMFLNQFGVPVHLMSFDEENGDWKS

GST-Sfr1-WI = molecular target: T2, GST-Sfr1-WI (S. pombe, UniProt Q9USV1 1-299, Lys93 to Ala | Lys94 to Ala | Arg95 to Ala | Lys157 to Ala | Arg158 to Ala | …); assay: as above; settings: partners not purified
T2 construct: Sfr1, S. pombe, seven arginine and lysine residues of Site 1 and Site 2 changed to alanine; pGEX-4T-1 should put GST at the N-terminus (surmised); Partly degraded as m1; also called pGEX-4T-1 sfr1-WI (CMC98); source: E. coli BL21 DE3, in cleared lysate
T2 sequence (looked up): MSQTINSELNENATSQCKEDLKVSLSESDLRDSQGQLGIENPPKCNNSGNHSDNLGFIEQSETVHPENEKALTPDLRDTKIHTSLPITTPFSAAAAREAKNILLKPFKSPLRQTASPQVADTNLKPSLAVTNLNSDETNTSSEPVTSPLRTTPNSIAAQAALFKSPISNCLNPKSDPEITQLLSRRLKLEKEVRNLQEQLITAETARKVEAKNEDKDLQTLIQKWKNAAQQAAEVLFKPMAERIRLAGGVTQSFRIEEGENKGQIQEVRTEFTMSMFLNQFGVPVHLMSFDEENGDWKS

Molecule: Sfr1 (from UniProt Q9USV1) EGFP-Sfr1-7A
- other: % of Rad51 foci co-localised with EGFP-Sfr1 foci (Rad51 [1]): same; reference 78

Molecule: Sfr1 (from UniProt Q9USV1) EGFP-Sfr1-7D
- other: % of Rad51 foci co-localised with EGFP-Sfr1 foci (Rad51 [1]): weaker; reference 78

Molecule: Sfr1 (from UniProt Q9USV1) GST-Sfr1-7A
- percent of reference (Rad51 [2]): 81%

B1: Rad51 (untagged) (natural protein, S. pombe, UniProt P36601 1-365, looked up)
chain: MADTEVEMQVSAADTNNNENGQAQSNYEYDVNVQDEEDEAAAGPMPLQMLEGNGITASDIKKIHEAGYYTVESIAYTPKRQLLLIKGISEAKADKLLGEASKLVPMGFTTATEYHIRRSELITITTGSKQLDTLLQGGVETGSITELFGEFRTGKSQICHTLAVTCQLPIDMGGGEGKCLYIDTEGTFRPVRLLAVADRYGLNGEEVLDNVAYARAYNADHQLELLQQAANMMSESRFSLLVVDSCTALYRTDFSGRGELSARQMHLARFMRTLQRLADEFGIAVVITNQVVAQVDGISFNPDPKKPIGGNILAHSSTTRLSLRKGRGEQRICKIYDSPCLPESEAIFAINSDGVGDPKEIIAPV
notes: Rad51 recombinase, S. pombe, untagged, in pET-11d; Plasmid ordered from GeneUniversal or GeneCust; also called pET-11d rad51 (CMC99); recombinase Rad51; source: E. coli BL21 DE3, in cleared lysate
- efficiency of binding compared to control GST-Sfr1 (Rad51/GST ratio) (GST-Sfr1-7A): 81%
- efficiency of binding compared to control GST-Sfr1 (Rad51/GST ratio) (GST-Sfr1-WI): 17%
